T1: FixX subunit of the FixABCX complex from Azotobacter vinelandii (Azotobacter vinelandii, UniProt P53658 1-94)
T1 sequence (looked up): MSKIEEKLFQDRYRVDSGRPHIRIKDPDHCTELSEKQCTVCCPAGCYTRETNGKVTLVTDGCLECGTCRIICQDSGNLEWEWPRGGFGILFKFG

B1: FixA subunit of the FixABCX complex from Azotobacter vinelandii (natural protein, UniProt P53576 1-281, looked up)
chain: MHSVVCIKQLPDSAQIRVHPVTNTIMRQGVPAIINPYDLFALEEALRLKDKFGGTVTVVTMGPPMAEAALRKCLSFGADDAILVSDRAFAGSDTLATSYALSAVIRKIMEDMPVDLIFTGKQTIDGDTAQVGPGIAKRLDYQLLTYVSRIVDVDTAKKEIQVERRAEGGVQLLETSLPCLITMLEGTNEMRFGDLDDLFRAARHELKVWDRVAAGIDTVEMIGLKGSPTVVSKVFAPKPRSKRAELIESHDSDPKNLAEAALAKLFTQHPNLEQEIAKRAV
B2: FixC subunit of the FixABCX complex from Azotobacter vinelandii (natural protein, UniProt P53572 2-427, looked up)
chain: AERFDVIVVGAGMAGNAAAYTLAKGGLKVLQIERGETPGSKNVQGAILYADAIEKIIPDFRDDAPLERHLIEQRVWVMDDASYGYHYRSEDFNKPPYNRYTIIRVHFDQWFNKKAREAGVLTICETRHDLLIEGGKVVGVRTDRQGGEVRADAVILADGVNSRLAVKAGFSRDQPENWALAVKEIHFLPQETMEARFNIGEEEAAIEMAGKIDAGMMGTGFLYTNKESITLGVGCMLSDFKQQKISPYELLDRMKTHPSIAPLIAGSDMKEYAAHLIPEGGYNAIPQVYGDGWMIAGDAPIRHGIHREGSNLAMTTGMLAAQTLVELRAADKPFSAANLAEYKKKLDDSFVMKDLKKYRRMPEIFHKNKQFFTTYPDLLSRAAQTLIRVDGVDKKTKEKEIKKSFIGLRSLFGLIGDAFKFWRAVE
B3: FixB subunit of the FixABCX complex from Azotobacter vinelandii (natural protein, UniProt P53574 2-360, looked up)
chain: SEQPKKPTKKKVELDPRFVDVRHVWVCIESERGVVHPVSWELLGEGRKSVDALGGELYGVVICGPGERGKEICGEPVQHGADKAYLLQHEILRDYRNEPYTKALTDLVTATQPEILMLGATTLGRDLAGSVATTLGTGLVADCTELVIDTETRNLASTRPTFDGSLLCKPSSAQRHRPQMATVRPRMAMPEPDASRSGEIIEVPFSMIETDIITKVLEFIPDDTRDKPNLPFADIIVAGGRGLRNQENFQLVWDLAKVLGAEVGASRPIVQAGWAELDRQVGQSGKTVRPKLYIAAGISGAIQHRVGMDGADVIIAINTDPNAPIFDFAHYGIVGNAITVLPALTEAFKARLGQLKKAG

Experiments:
[1] = target: FixAB from Rhodospirillum rubrum (Rhodospirillum rubrum, UniProt Q6US86+Q6US87); test: transient absorption spectroscopy of bound flavin; format: binding; details: FAD-reconstituted, as-isolated oxidized state; room temperature
[2] = target: B3; test: co-purification
[3] = target: T1, FixX subunit of the FixABCX complex …; test: co-purification
[4] = target: B2; test: co-purification

Cc1cc2nc3c(=O)[nH]c(=O)nc-3n(C[C@H](O)[C@H](O)[C@H](O)COP(=O)(O)OP(=O)(O)OC[C@H]3O[C@@H](n4cnc5c(N)ncnc54)[C@H](O)[C@@H]3O)c2cc1C [FAD]
transient absorption spectroscopy of bound flavin [1]: two ASQ species can be formed in the FixAB unit, consistent with the presence of two flavins

B1
stoichiometry N [2]: 1

B2
stoichiometry N [3]: 1

B3
stoichiometry N [4]: 1
